B1: AYA1809002 (structured_DNA)
DNA: GCGGTGTTGCTGGGGTTGGGAGGTTGGAGGAAGCAATCGC
B2: AYA1809004 (structured_DNA)
DNA: TCGTCAAGGTACGGTTGGGGGGGTGGGTGTTGACGTTGAA
B3: AYA1809007 unlabeled (structured_DNA)
DNA: AGGGGCTCTAGGGTGGGTAGGATGGTGAGACCGCAGCGT
B4: AYA1809007 (structured_DNA)
DNA: AGGGGCTCTAGGGTGGGTAGGATGGTGAGACCGCAGCGT

Experiments:
[1] = target: T1, alpha-thrombin (Homo sapiens, UniProt P00734;P00734 328-363;364-622); assay: ELISA-based binding with competition; 100-fold excess unlabeled competitor as control; 20 mM Tris pH 7.5, 150 mM NaCl, 0.1% BSA, 0.1% Tween 20, 100 ug/mL sheared salmon sperm DNA, 1 h, room temperature; thrombin coated at 250 nM
[2] = target: T1, alpha-thrombin; assay: competition; 100-fold excess over biotinylated AYA1809007; 20 mM Tris pH 7.5, 150 mM NaCl, 0.1% BSA, 0.1% Tween 20, 100 ug/mL sheared salmon sperm DNA, 1 h, room temperature; thrombin coated at 250 nM
[3] = target: T1, alpha-thrombin; assay: ELISA; 20 mM Tris pH 7.5, 150 mM NaCl, 0.1% BSA, 0.1% Tween 20, 100 ug/mL sheared salmon sperm DNA, 1 h, room temperature; thrombin coated at 250 nM

| Binder | Kd [1] [nM] | other results |
| --- | --- | --- |
| B1 | 10 | – |
| B2 | 13 | – |
| B3 | – | binding result [2]: binds |
| B4 | – | binding result [3]: binds |
